# Assay results taken from patent US20230090502.
# Target: Uncleaved SARS-CoV-2 3CLpro (N-terminal 6xHIS-tag followed by TEV-protease cleavage site)
protein,measurement,value
"TEV-protease (New England Biolabs, includes a HIS-tag) (protein) GESLFKGPRDYNPISSTICHLTNESDGHTTSLYGIGFGPFIITNKHLFRRNNGTLLVQSLHGVFKVKNTTTLQQHLIDGRDMIIIRMPKDFPPFPQKLKFREPQREERICLVTTNFQTKSMSSMVSDTSCTFPSSDGIFWKHWIQTKDGQCGSPLVSTRDGFIVGIHSASNFTNTNNYFTSVPKNFMELLTNQEAQQWVSGWRLNADSVLWGGHKVFMSKPEEPFQPVKEATQLMNELVYSQ","cleavage of the HIS-tag, SDS-PAGE",Cleavage of the 3CLpro was successful
